# Test results from patent US8241627B2, “Modified polypeptides stabilized in a desired conformation and methods for producing same” (The Center for Blood Research, Inc., priority 2000, dated 2012).
# B1: K287C/K294C: human αL (LFA-1) I-domain with K287 and K294 replaced by cysteines; high affinity locked open; tested in intact LFA-1, cell-surface and soluble forms (protein)
# chain: GNVDLVFLFDGSMSLQPDEFQKILDFMKDVMKKLSNTSYQFAAVQFSTSYKTEFDFSDYVKRKDPDALLKHVKHMLLLTNTFGAINYVATEVFREELGARPDATKVLIIITDGEATDSGNIDAAKDIIRYIIGIGKHFQTKESQETLHKFASKPASEFVCILDTFECLKDLFTELQKKIY
# notes: human αL (LFA-1) I-domain with K287 and K294 replaced by cysteines; tested in intact LFA-1, cell-surface and soluble forms
# How the values were obtained:
# [1] = system: murine T lymphoma cell line EL-4; assay: PMA-induced LFA-1-dependent homotypic aggregation of EL-4 cells; format: cell-based; conditions: 50 ng/ml PMA, 2 hours at 37° C.
# Description: Cells were incubated in a 96 well plate in the presence of 50 ng/ml PMA and varying amounts of soluble I-domains.
# [2] = system: K562 cells stably expressing wild-type LFA-1; assay: Inhibition by soluble I-domains of adhesion of LFA-1 expressing K562 cells to immobilized ICAM-1; format: cell-based, human; conditions: LFA-1 activated by CBRLFA-1/2; 40 minutes at 37° C.
# Description: The activity of the soluble open I-domain to inhibit LFA-1I-dependent adhesion was tested. In one study, K562 cells stably expressing wild-type LFA-1 were fluorescently labeled by BCECF and LFA-1 on the cell surface was activated by the activating monoclonal antibody, CBRLFA-1/2 in L15 media supplemented with FCS. The cells were subsequently incubated in ICAM-1 coated 96-well plastic plates in the presence or absence of 1-domains. After incubation for 40 minutes at 37° C., unbound cells were washed off on a Microplate Autowasher. The fluorescence content of total input cells and the bound cells in each well was quantitated on a Fluorescent Concentration Analyzer. The bound cells were expressed as a percentage of total input cells per sample well.
# [3] = target: murine ICAM-1 (Mus musculus, UniProt P13597); assay: Affinity of open I-domain for murine ICAM-1; format: binding
# Description: Briefly, recombinant mutant αL I-domain stabilized in the open conformation (K287C/K294C), or recombinant wild-type αL I-domain from amino acid residue G128 to Y307, were cloned into pET11b (Novagen) and expressed in E. coli induced with 1 mM IPTG for 4 hours. The recombinant proteins were purified from inclusion bodies by solubilization of inclusion bodies in 6M guanidine HCl and were refolded by dilution in the presence of 0.1 mM Cu^2+/phenanthrolin to enhance formation of disulfide bonds. Protein was concentrated by ammonium sulfate precipitation, dialyzed, and purified over a monoQ ion-exchange column. […] The recombinant proteins were then purified by gel filtration and concentrated by Centriprep. For BIAcore™ analysis, recombinant ICAM-1, ICAM-2 and ICAM-3 Fc chimeras were immobilized on the BIAcore™ sensor chip by an amine-coupling method. Recombinant αL I-domains were flowed in, and BIAcore™ assays were performed with Tris-buffered saline supplemented with 1 mM MgCl2 or 2 mM EDTA, at a flow rate of 10 μl/minute at 25° C.
# To analyze binding kinetics, different concentrations of open I-domain were tested for ligand binding (FIG. 9, Panels B, D and F).
# [4] = system: T-lymphocytes in peripheral lymph node high endothelial venules; assay: Intravital microscopy of lymphocyte behaviour in peripheral lymph node high endothelial venules; format: in vivo; conditions: mouse
# Description: Moreover, the ability of the open I-domain mutants to inhibit LFA-1 function in vivo was tested by visualizing microcirculation in the peripheral lymph node (LN) with intravital microscopy. Briefly, a small bolus (20-50 µl) of LN cell suspensions from […] mice were retrogradely injected through a femoral artery catheter and visualized in the subiliac LN by fluorescent epi-illumination from a video-triggered xenon arc stroboscope. After recording control […] cell behavior in the absence of 1-domain, the mouse was pretreated by intra-arterial injection of 1-domain (10 µg/g of weight) 5 minutes before T^GFP cell injection. All scenes were recorded on videotape and off-line analysis was done. The rolling fraction was calculated as percentage of rolling cells amount the total number of TGFβ cells that entered a venule. The sticking (firm adhesion) fraction was determined as the percentage of T^GFP cells becoming firmly adherent for >20 seconds in the number of T^GFP cells that rolled in a venule. Results were semi-quantitatively scored as follows: −: 0%, .+−.: 0-5%, +: 5-20%, ++: 20-40%, +++: 40-60%, ++++: 60-80%, +++++:80-100%.
# Chain of murine ICAM-1 (P13597 28-537): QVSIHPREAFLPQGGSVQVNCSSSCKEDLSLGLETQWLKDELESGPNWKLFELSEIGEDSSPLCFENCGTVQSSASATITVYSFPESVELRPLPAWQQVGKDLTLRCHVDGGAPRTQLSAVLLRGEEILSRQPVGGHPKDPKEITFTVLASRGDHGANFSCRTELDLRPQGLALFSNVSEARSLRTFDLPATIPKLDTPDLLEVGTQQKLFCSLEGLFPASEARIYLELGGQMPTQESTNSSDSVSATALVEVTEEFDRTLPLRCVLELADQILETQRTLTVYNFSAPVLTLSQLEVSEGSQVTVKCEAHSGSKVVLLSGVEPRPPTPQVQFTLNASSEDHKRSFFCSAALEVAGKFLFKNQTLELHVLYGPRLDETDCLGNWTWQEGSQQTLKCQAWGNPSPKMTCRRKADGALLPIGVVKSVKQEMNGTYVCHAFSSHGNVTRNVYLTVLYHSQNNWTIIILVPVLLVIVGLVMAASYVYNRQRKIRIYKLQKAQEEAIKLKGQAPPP
molecule,measurement,setting,value
B1,inhibition of PMA-induced LFA-1 dependent homotypic aggregation,[1],inhibited
same,inhibition of adhesion of LFA-1 expressing cells to immobilized ICAM-1,[2],strongly inhibited
same,affinity for murine ICAM-1,[3],nanomolar range
same,firm adhesion of T-lymphocytes to high endothelial venules,[4]; injection of I-domain,effectively blocked
same,lymphocyte rolling mediated by L-selectin and PNAd,[4]; injection of I-domain,not compromised
same,Fraction transmigration,[4]; intra-arterial I-domain 10 μg/g,− (−: 0%)
same,Fraction Rolling,[4]; intra-arterial I-domain 10 μg/g 5 minutes before T-GFP cell injection,++++ (++++: 60-80%)
same,Fraction firm adhesion,"[4]; intra-arterial I-domain 10 μg/g, adherent >20 seconds",± (.+−.: 0-5%)
